Results reported in patent US20220332804A1 (CSL INNOVATION, published 2022).

Assays:
Test in all cases: SPR; KD relative to WT C2;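 further: biacore SPR at 37 °C, anti-C2 mAbs captured on an anti-human IgG chip, alanine or serine C2 surface mutants tested, KD from 1:1 fit compared with wild-type C2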
[1] = biological target: T1, human C2 N325A (human, UniProt P06681 21-752)
T1 sequence: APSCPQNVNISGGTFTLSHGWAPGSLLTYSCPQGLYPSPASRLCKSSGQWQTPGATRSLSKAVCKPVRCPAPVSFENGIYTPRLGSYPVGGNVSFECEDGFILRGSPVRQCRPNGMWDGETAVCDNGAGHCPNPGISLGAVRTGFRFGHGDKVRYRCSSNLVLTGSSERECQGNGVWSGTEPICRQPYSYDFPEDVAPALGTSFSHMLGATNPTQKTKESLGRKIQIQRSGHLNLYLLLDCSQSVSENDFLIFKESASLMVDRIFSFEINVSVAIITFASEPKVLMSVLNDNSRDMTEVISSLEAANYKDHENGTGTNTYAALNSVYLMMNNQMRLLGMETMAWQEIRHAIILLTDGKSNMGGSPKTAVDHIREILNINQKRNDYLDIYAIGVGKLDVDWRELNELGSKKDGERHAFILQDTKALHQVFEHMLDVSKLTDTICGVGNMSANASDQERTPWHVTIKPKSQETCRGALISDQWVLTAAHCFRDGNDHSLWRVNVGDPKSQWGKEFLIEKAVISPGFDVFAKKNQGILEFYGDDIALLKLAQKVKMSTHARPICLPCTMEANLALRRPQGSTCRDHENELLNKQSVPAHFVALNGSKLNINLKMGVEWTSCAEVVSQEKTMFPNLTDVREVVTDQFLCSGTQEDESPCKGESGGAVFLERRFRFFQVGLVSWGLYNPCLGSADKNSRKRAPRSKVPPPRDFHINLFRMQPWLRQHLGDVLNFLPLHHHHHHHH

[2] = biological target: T2, human C2 G677A (human, UniProt P06681 21-752)
T2 sequence: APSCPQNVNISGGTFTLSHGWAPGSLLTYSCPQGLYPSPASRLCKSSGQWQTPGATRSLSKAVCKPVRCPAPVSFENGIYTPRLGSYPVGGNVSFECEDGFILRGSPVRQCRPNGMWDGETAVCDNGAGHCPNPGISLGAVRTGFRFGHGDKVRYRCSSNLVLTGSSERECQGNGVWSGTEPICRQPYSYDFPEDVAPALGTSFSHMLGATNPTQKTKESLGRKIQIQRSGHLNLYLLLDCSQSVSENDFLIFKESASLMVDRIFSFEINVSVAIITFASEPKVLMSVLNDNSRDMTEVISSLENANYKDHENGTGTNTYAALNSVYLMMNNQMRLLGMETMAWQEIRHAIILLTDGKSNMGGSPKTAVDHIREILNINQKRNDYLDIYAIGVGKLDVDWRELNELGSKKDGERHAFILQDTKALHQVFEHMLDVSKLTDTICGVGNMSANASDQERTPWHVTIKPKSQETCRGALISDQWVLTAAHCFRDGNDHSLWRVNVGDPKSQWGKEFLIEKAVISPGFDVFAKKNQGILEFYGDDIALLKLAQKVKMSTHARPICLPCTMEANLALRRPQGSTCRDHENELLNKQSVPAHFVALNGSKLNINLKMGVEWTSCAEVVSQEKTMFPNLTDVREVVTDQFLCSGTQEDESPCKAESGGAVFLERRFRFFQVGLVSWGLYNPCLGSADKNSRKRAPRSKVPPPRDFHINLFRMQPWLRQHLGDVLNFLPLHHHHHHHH

[3] = biological target: T3, human C2 S456A (human, UniProt P06681 21-752)
T3 sequence: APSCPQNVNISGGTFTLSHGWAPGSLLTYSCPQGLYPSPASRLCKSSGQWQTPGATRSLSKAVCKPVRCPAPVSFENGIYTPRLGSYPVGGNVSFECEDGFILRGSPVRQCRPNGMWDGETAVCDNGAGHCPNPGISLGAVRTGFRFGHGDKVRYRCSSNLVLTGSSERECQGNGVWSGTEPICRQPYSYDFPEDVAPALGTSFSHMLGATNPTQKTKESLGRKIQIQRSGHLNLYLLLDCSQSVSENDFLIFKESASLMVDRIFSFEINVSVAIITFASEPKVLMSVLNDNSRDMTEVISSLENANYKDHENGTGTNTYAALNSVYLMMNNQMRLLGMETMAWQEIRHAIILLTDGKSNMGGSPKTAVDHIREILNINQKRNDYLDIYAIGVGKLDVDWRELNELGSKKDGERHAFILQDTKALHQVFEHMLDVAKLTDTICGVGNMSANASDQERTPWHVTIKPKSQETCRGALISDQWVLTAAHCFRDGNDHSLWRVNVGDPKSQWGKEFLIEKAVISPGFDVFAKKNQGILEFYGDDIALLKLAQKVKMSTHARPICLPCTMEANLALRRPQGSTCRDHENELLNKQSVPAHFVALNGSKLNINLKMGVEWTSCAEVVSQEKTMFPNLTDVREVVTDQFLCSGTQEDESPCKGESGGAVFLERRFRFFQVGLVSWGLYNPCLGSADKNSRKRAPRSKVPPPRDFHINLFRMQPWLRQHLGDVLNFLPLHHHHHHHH

[4] = biological target: T4, human complement C2 (human, UniProt P06681 21-752)
T4 construct: Recombinant full-length human C2 with C-terminal 8x His tag, purified from Expi293F supernatant; also called human C2; huC2
T4 sequence: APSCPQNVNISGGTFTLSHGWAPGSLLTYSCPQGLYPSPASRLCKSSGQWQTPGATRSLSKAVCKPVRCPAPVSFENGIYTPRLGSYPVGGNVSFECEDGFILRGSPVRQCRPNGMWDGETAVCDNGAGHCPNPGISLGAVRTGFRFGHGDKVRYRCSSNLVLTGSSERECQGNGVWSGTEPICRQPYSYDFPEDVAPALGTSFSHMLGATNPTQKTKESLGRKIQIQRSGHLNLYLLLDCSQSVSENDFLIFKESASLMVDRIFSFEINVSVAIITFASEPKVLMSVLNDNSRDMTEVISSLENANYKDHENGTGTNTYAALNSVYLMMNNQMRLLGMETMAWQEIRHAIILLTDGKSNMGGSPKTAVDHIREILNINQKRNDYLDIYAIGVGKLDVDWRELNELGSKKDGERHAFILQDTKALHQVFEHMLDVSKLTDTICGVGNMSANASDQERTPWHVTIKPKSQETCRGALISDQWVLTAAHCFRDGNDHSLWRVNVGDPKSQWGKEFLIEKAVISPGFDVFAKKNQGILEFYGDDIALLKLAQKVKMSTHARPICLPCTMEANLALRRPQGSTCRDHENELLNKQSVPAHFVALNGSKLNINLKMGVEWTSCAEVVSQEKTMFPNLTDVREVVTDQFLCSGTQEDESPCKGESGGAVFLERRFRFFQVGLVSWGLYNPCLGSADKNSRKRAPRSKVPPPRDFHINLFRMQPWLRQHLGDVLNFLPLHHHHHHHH

Fold diff [1]: 11 fold | Fold diff [2]: 1 fold | Fold diff [3]: 5 fold | Fold diff [4]: 1 fold
B1: RF16-214 (antibody, V domains shown)
VH: EVQLLESGGGLVQPGGSLRLSCAASGFTFSWYQMMWVRQAPGKGLEWVSRIYPSGGGTAYADSVKGRFTISRDNSKNTLYLQMNSLRAEDTAVYYCARDAGYGDNWGQGTLVTVSS
VL: QSALTQPPSVSVSPGQTASITCSGDKLGEKYASWYQQKAGQSPVMVIYQDRKRPSGIPERFSGSNSGNTATLTISGTQAMDEADYYCQAWDTRAVVFGGGTKLTVLG
